From patent publication US20250000946A1 (WUXI BIOLOGICS IRELAND, published 2025)
Changes are numbered by the printed parent chain. Numbers in names are those of the source. Like-named read-outs stand apart in the source and are kept apart here. Each block holds one binder with its values, some of them ahead of it.

What was measured:
[1] = biological target: T1, W3XX115-T2U0.E44-6.uIgG4V322 (human, UniProt P60568 21-149); experiment: SPR Biacore 8K; variant captured via anti-human Fc, IL-2Rα ECD-His injected; steady state
T1 construct: IL-2 del STLT; E44 format, IgG4 FALA; IL-2 part tied by the design 'Del STLT'; not shown: IgG4 hinge-Fc with FALA (uIgG4V322), no linker
Experimental: IL-2 variants binding affinity to IL-2 receptor were detected by SPR using Biacore 8K. For IL-2Rα binding assay, each variant was captured on anti-human Fc immobilized CM5 sensor chip (cytiva). W3XX115-hPro1.ECD.His at different concentrations were injected over the sensor chip at a flow rate of 30 uL/min for an association phase of 60 s, followed by 90 s dissociation. The chip was then regenerated by 10 mM Glycine-HCl pH1.5 after each binding cycle. For IL-2Rγ binding assay, IL-2 variants were mixed with W369-hPro2.ECD.His as 1:1 before assay, were detected by SPR using Biacore 8K. W3XX115-hPro1.ECD.His was captured on anti-His immobilized CM5 sensor chip (cytiva). The mixture were injected over the sensor chip as described above. The sensorgrams of blank surface and buffer channel were subtracted from the test sensorgrams. The experimental data was fitted by steady state affinity model. Molecular weight of W3XX115-hPro1.ECD.His or W369-hPro1.ECD.His was used to calculate the molar concentration of analyte.
For T3U0.E44-1 and T2U0.E44-33, no binding to IL-2Rα was detected.

[2] = biological target: T1, W3XX115-T2U0.E44-6.uIgG4V322; experiment: SPR (Biacore 8K): variant pre-mixed 1:1 with human IL-2Rβ ECD (W369-hPro2.ECD.His), injected over immobilised human IL-2Rγc [panel 2 of the upper row]
[3] = biological target: T2, Human IL-2Rα/β/γ complex (high affinity IL-2 receptor) (human, UniProt P01589 22-272; P14784 27-551; P31785 23-369); experiment: FACS, NK92 cells
T2 construct: whole, on cells
T2 sequence (looked up) 1: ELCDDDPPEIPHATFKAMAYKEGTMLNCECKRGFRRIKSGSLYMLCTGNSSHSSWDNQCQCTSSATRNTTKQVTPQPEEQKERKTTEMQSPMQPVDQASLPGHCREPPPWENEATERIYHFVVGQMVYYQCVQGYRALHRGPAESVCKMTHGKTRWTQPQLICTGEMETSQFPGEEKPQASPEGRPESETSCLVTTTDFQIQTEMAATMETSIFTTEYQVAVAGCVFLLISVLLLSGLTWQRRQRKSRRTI
T2 sequence (looked up) 2: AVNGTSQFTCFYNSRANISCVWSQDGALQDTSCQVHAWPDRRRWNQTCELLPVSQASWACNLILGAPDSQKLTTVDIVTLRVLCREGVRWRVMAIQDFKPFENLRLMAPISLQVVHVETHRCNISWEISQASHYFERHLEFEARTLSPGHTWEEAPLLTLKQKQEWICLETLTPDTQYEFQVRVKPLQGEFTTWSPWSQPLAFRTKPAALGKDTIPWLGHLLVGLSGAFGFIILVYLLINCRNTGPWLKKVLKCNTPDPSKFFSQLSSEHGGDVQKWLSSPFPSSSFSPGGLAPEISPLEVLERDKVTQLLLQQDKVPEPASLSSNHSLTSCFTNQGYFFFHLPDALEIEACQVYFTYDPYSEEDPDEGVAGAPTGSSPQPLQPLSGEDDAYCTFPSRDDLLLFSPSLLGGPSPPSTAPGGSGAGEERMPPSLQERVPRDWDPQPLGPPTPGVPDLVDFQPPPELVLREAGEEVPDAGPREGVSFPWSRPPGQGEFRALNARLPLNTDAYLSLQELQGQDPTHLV
T2 sequence (looked up) 3: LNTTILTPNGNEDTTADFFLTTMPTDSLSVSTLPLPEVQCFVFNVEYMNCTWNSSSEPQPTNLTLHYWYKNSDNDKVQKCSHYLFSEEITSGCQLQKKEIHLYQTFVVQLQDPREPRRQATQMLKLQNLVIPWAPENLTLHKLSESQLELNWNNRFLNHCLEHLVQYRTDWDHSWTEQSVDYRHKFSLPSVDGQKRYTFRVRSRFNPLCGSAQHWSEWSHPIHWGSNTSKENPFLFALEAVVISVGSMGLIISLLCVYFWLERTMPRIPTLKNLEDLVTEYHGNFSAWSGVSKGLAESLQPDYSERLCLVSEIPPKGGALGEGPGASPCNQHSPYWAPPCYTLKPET
How it was run: (§1)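 Surface binding of IL-2/Fc fusion proteins at 4° C. (30 min, no internalization) on lymphoma lines HH (CD122/CD132 only), NK92 and MJ20 (plus CD25); secondary PE-anti-human Fc; MFI by FACS.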

[4] = biological target: T3, Human IL-2Rβ/γ (intermediate affinity IL-2 receptor) (human, UniProt P14784 27-551; P31785 23-369); experiment: FACS, HH cells; EC50 fold vs T2U0.E44-1
T3 construct: whole, on cells; also called IL-2Rβ/γc; IL-2Rβ (CD122) and γ (CD132)
T3 sequence (looked up) 1: T2 sequence (looked up) 2
T3 sequence (looked up) 2: T2 sequence (looked up) 3
Experimental: (§2) Human cutaneous T cell lymphoma HH cells, malignant non-Hodgkin's lymphoma NK92 cells and cutaneous T cell lymphoma MJ20 cells were used for binding assay. They both constitutively express IL-2Rβ (CD122) and […] (CD132), and NK92 and MJ20 also expresses IL-2Rα (CD25). HH, NK92 and MJ20 cells were cultured following ATCC guidance, then transferred to a 96-plate for binding analysis. Cells were incubated with IL-2/Fc fusion proteins at the indicated concentrations for 30 min at 4° C. to avoid internalization. Binding was detected by 2nd antibody of PE-anti-human Fc at 4° C. for another 30 min. The median fluorescence intensity (MFI) on HH and NK92 cells was measured using FACS.

[5] = biological target: T3, Human IL-2Rβ/γ (intermediate affinity …); experiment: FACS, HH cells
Experimental: as §2

[6] = biological target: T2, Human IL-2Rα/β/γ complex (high affinity …); experiment: cell-based or functional assay
[7] = biological target: T3, Human IL-2Rβ/γ (intermediate affinity …); experiment: cell-based or functional assay
[8] = biological target: T2, Human IL-2Rα/β/γ complex (high affinity …); experiment: FACS, NK92 cells; EC50 fold vs T2U0.E44-1
How it was run: as §1

[9] = biological target: T3, Human IL-2Rβ/γ (intermediate affinity …); experiment: FACS, HH cells; EC50 fold vs T2U0.E44-1; remark: listed apart in the source
How it was run: as §1

[10] = biological target: T3, Human IL-2Rβ/γ (intermediate affinity …); experiment: FACS, HH cells; remark: listed apart in the source
How it was run: as §1

[11] = biological target: T2, Human IL-2Rα/β/γ complex (high affinity …); experiment: cell-based or functional assay; remark: listed apart in the source
[12] = biological target: T3, Human IL-2Rβ/γ (intermediate affinity …); experiment: cell-based or functional assay; remark: listed apart in the source

B4: W3XX115-T2U0.E44-16.uIgG4V1 (Fc fusion)
chain: APTSSSTKKTQLQLEHLLLDLQMILNGINNYKNPKLTRMLTIKFYMPKKATELKHLQCLEEELKPLEEVLNLAQSKNFHLRPRDLISNINVIVLELKGSETTFMCEYADETATIVEFLNRWITFCQSIIESKYGPPCPPCPAPEFLGGPSVFLFPPKPKDTLMISRTPEVTCVVVDVSQEDPEVQFNWYVDGVEVHNAKTKPREEQFNSTYRVVSVLTVLHQDWLNGKEYKCKVSNKGLPSSIEKTISKAKGQPREPQVYTLPPCQEEMTKNQVSLWCLVKGFYPSDIAVEWESNGQPENNYKTTPPVLDSDGSFFLYSRLTVDKSRWQEGNVFSCSVMHEALHNHYTQKSLSLSLG
heavy: EIQLQQSGPELVKPGASVKVSCKASGYSFTDYNMYWVKQSHGESLEWIGYIDPYNGGTRYNQKFKGKATLTVDKSSSTAFMHLNSLTSEDSAVYYCARNGHWDGAWFAYWGQGTLVTVSAASTKGPSVFPLAPCSRSTSESTAALGCLVKDYFPEPVTVSWNSGALTSGVHTFPAVLQSSGLYSLSSVVTVPSSSLGTKTYTCNVDHKPSNTKVDKRVESKYGPPCPPCPAPEFLGGPSVFLFPPKPKDTLMISRTPEVTCVVVDVSQEDPEVQFNWYVDGVEVHNAKTKPREEQFNSTYRVVSVLTVLHQDWLNGKEYKCKVSNKGLPSSIEKTISKAKGQPREPQVCTLPPSQEEMTKNQVSLSCAVKGFYPSDIAVEWESNGQPENNYKTTPPVLDSDGSFFLVSRLTVDKSRWQEGNVFSCSVMHEALHNHYTQKSLSLSLG
light: DIQMNQSPSSLSASLGDTITITCHASQNINVWLSWYQQKPGNIPKLLIYKASNLHTGVPSRFSGSRSGTGFTLTISSLQPEDIATYYCHQGQSYPFTFGSGTKLEIKRTVAAPSVFIFPPSDEQLKSGTASVVCLLNNFYPREAKVQWKVDNALQSGNSQESVTEQDSKDSTYSLSSTLTLSKADYEKHKVYACEVTHQGLSSPVTKSFNRGEC
notes: IL-2 del STLT and F42I; E44 format, IgG4
EC50 [3]: ~0.31 µM | Affinity reduction [4]: 18.9 fold | EC50 [5]: 0.472 µM | Affinity reduction [8]: 44.3 fold | Human Treg Potency EC50 (STAT5 phosphorylation) [11]: 0.0312 µM | Human Treg Potency reduction [11]: 2620 fold | Human CD8+ T Potency EC50 (STAT5 phosphorylation) [12]: 0.251 µM | Human CD8+ T Potency reduction [12]: 24.4 fold

B5: W3XX115-T2U0.E44-20.uIgG4V1 (Fc fusion)
chain: B4 chain with R38W, I42F
heavy: B4 heavy
light: B4 light
notes: IL-2 del STLT and R38W; E44 format, IgG4
EC50 [3]: 0.232 µM | Affinity reduction [4]: 13.5 fold | EC50 [5]: 0.336 µM | Affinity reduction [8]: 33.1 fold | Human Treg Potency EC50 (STAT5 phosphorylation) [11]: 0.00206 µM | Human Treg Potency reduction [11]: 173 fold | Human CD8+ T Potency EC50 (STAT5 phosphorylation) [12]: 0.323 µM | Human CD8+ T Potency reduction [12]: 31.4 fold

B6: W3XX115-T2U0.E44-19.uIgG4V1 (Fc fusion)
chain: B4 chain with I42M
heavy: B4 heavy
light: B4 light
notes: IL-2 del STLT and F42M; E44 format, IgG4
EC50 [3]: 0.522 µM | Affinity reduction [4]: 15.9 fold | EC50 [5]: 0.398 µM | Affinity reduction [8]: 74.6 fold | Human Treg Potency EC50 (STAT5 phosphorylation) [11]: 0.00053 µM | Human Treg Potency reduction [11]: 44.5 fold | Human CD8+ T Potency EC50 (STAT5 phosphorylation) [12]: 0.185 µM | Human CD8+ T Potency reduction [12]: 18 fold

The next lines start with the values.

Kd [1]: 0.0982 µM
B1: W3XX115-hPro1.ECD.His, IL2Rα ECD (receptor)
chain: ELCDDDPPEIPHATFKAMAYKEGTMLNCECKRGFRRIKSGSLYMLCTGNSSHSSWDNQCQCTSSATRNTTKQVTPQPEEQKERKTTEMQSPMQPVDQASLPGHCREPPPWENEATERIYHFVVGQMVYYQCVQGYRALHRGPAESVCKMTHGKTRWTQPQLICTGEMETSQFPGEEKPQASPEGRPESETSCHHHHHH
notes: Entry includes the C-terminal 6xHis tag; also called CD25

binding result [2]: binds
B2: W369-hPro1.ECD.His, IL-2Rγ ECD (receptor)
chain: LNTTILTPNGNEDTTADFFLTTMPTDSLSVSTLPLPEVQCFVFNVEYMNCTWNSSSEPQPTNLTLHYWYKNSDNDKVQKCSHYLFSEEITSGCQLQKKEIHLYQTFVVQLQDPREPRRQATQMLKLQNLVIPWAPENLTLHKLSESQLELNWNNRFLNHCLEHLVQYRTDWDHSWTEQSVDYRHKFSLPSVDGQKRYTFRVRSRFNPLCGSAQHWSEWSHPIHWGSNTSKENLEGGGGSGGGGHHHHHH
notes: Entry includes linker and C-terminal 6xHis tag; also called IL-2Rγc; CD132

EC50 [3]: 0.145 µM | Affinity reduction [4]: 1 fold | EC50 [5]: 0.0245 µM | Potency in human Treg EC50 [6]: 0.00248 µM | Potency reduction (Treg) [6]: 652 fold | Potency in human CD8+ T EC50 [7]: 0.00753 µM | Potency reduction (CD8+ T) [7]: 0.74 fold | Affinity reduction [8]: 20.7 fold | Affinity reduction [9]: 1 fold | EC50 [10]: 0.0729 µM | Human Treg Potency EC50 (STAT5 phosphorylation) [11]: 0.00352 µM | Human Treg Potency reduction [11]: 296 fold | Human CD8+ T Potency EC50 (STAT5 phosphorylation) [12]: 0.00714 µM | Human CD8+ T Potency reduction [12]: 0.69 fold
B3: W3XX115-T3U0.E44-1.uIgG4V1 (Fc fusion)
chain: APTSSSTKKTQLQLEHLLLDLQMILNGINNYKNPKLTRMLTAKFAMPKKATELKHLQCLEEELKPLEEVLNGAQSKNFHLRPRDLISNINVIVLELKGSETTFMCEYADETATIVEFLNRWITFCQSIISTLTESKYGPPCPPCPAPEFLGGPSVFLFPPKPKDTLMISRTPEVTCVVVDVSQEDPEVQFNWYVDGVEVHNAKTKPREEQFNSTYRVVSVLTVLHQDWLNGKEYKCKVSNKGLPSSIEKTISKAKGQPREPQVYTLPPCQEEMTKNQVSLWCLVKGFYPSDIAVEWESNGQPENNYKTTPPVLDSDGSFFLYSRLTVDKSRWQEGNVFSCSVMHEALHNHYTQKSLSLSLG
heavy: B4 heavy
light: B4 light
notes: E44 format, IgG4
